The target in assay [1] is T1, US28 wild type, G protein-coupled receptor of human cytomegalovirus strain VHL/E (human cytomegalovirus strain VHL/E).
T1 construct: whole, on cells; In some assays membranes of transfected cells were used; also called US28-WT; US28 VHL/E
The assay can be described thus: competition of unlabeled CX3CL1 against 125I-CX3CL1 on US28.

The target in assay [2] is T1, US28 wild type, G protein-coupled …. The assay can be described thus: displacement of 125I-CX3CL1 from US28-expressing HEK293T membranes by unlabeled CX3CL1. (Loss of bound radioactivity is the signal in a displacement assay; it reports binding, not function.)

B1: human chemokine CX3CL1 (ligand, UniProt P78423 25-100, looked up)
chain: QHHGVTKCNITCSKMTSKIPVALLIHYQQNQASCGKRAIILETRQHRLFCADPKEQWVKDAMQHLDRQAAALTRNG
modifications: 125I label where used as radioligand
notes: also called CX3CL1/Fractalkine
Regarding B1, the “IC50 (read off the curve)” value is ~100 pM in assay [1] and ~300 pM in assay [2].

The values above are taken from US12037382 (STICHTING VU, dated 2024).
